Measurements as given in US20260001926A1.

Biological target: fibroblast growth factor receptor (FGFR)
Assay: cell-based or functional assay

EC50 (luciferase reporter in HEK293T cells transfected with plasmid FJ773212 / pGL4.33): 0.2 ng/ml
Substance: Bovine wild-type FGF2 (SEQ ID NO: 1) (from UniProt P03969 11-155) (ligand)
